Experimental data taken from paper PMC11879393 (Nucleic Acids Research, 2025).

T1: Rec27 (untagged, His6-SUMO tag removed by Ulp1) (S. pombe, UniProt Q9USR4 1-125)
T1 sequence (looked up): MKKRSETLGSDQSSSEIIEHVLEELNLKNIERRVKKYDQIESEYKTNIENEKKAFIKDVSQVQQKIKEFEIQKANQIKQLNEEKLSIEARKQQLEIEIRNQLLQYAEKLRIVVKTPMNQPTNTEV


Target: T1, Rec27 (untagged, His6-SUMO tag removed …)
Test: mass photometry

Row | stoichiometry N | Binder
1 | 1 | Mug20 (untagged) (natural protein, S. pombe, UniProt Q9HGN4 1-151, looked up) MSEIITSLQTELSNRHANMVSEAVLAFSEHHDSALHSYFLNARVKDVILESLRTTEEKLRALDKLQLDASKNLSNLLVEYNSINAELESVNSKISSISSQEYALEEFQALSQNFEKNLVQHRRNSQNKLKCAMEKLKMIETSTHKAILDNF
2 | 1 | Rec25 (untagged) (natural protein, S. pombe, UniProt Q9C115 1-150, looked up) MVKGSVTNTSSIVKQFEKSSIKHETETIAFAKQFINECIREFQEQKDNVVEEKNTDQNHQNQNQEGVIIEIYQELLQKVDLISSELRQNLSSLQLRFQEVERDTGHDLLNVLNSLSQEARLAQKVLEEDGSQQGSQLIQGLLTCFQSTGN
